Results on one molecule are retold here after paper PMC13244463, “Intermolecular β‑sheet Formation Guides the Interaction between Ubiquitin-like Modifier FAT10 and Adapter Protein NUB1L” (Journal of the American Chemical Society, 2026).

In this assay the target is T1, Human NUB1L (amino acids 2-615) (human, UniProt Q9Y5A7-1 2-615).
T1 construct: NUB1L, the long isoform of NEDD8-ultimate buster 1, human, amino acids 2-615 (615 residues in the long isoform); Details are in the Supporting Information; also called NEDD8-ultimate buster 1 long isoform; natural abundance NUB1L; source: E. coli BL21-CodonPlus(DE3)-RIPL, LB medium, purified (same steps as for N-FAT10-C0)
T1 sequence (looked up): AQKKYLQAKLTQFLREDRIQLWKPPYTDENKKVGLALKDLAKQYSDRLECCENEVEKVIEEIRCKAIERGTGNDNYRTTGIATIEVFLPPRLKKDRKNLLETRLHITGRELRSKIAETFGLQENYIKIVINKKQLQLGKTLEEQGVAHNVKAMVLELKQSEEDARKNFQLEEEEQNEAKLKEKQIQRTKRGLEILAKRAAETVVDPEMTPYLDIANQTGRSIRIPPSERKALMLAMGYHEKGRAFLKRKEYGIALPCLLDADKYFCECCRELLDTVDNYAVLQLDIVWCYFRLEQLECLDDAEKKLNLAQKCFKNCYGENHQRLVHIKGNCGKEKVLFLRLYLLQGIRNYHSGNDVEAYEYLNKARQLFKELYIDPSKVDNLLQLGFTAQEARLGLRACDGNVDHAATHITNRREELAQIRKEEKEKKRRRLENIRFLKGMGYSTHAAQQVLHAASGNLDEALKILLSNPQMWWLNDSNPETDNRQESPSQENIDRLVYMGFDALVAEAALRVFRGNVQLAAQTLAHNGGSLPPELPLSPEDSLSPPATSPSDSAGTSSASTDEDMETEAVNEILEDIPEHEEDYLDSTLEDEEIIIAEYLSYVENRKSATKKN
In words: SEC; size-exclusion chromatography (with SDS-PAGE) of N-FAT10-C0 with NUB1L, Figure S1; conditions are in the Supporting Information. Conditions: both partners purified. (In general: Size exclusion chromatography separates by hydrodynamic size, large species first.)

B1: Cys-free N-domain of human FAT10 (amino acids 5-86; C7T, C9T) (domain or fragment)
chain: GASTLTVHVRSEEWDLMTFDANPYDSVKKIKEHVRSKTKVPVQDQVLLLGSKILKPRRSLSSYGIDKEKTIHLTLKVVKPSDE
notes: additional glycine residue at the N-terminus that remains from the TEV protease cleavage site; FAT10 (human leukocyte antigen F adjacent transcript 10), human, N-domain, amino acids 5-86, with C7T and C9T; 83 residues together with the extra glycine; Uniformly 13C,15N labelled (M9 medium with U-13C6-D-glucose and 15N-ammonium chloride) for MAS NMR; Detailed protocols are in the Supporting …
Regarding B1, the binding result is given as “binds”.
